Assay results from patent US20260242478A1 (published 2026).
Where no end group is shown, it is not given here.

Columns and labels:
Anti-PSMA Fab [1] = molecular target: T1, Anti-PSMA Fab; assay: clonal phage ELISA on captured PSMA Fab pre-incubated with PSMA antigen as competitor, anti-M13 HRP detection;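 also: crude clonal phage supernatants tested by ELISA, wells first treated with blocking buffer plus PSMA antigen, bound phage read out via HRP-linked anti-M13 antibody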
T1 construct: Biotinylated and captured on neutravidin coated plates in the phage ELISA; also called 006 PSMA Fab
Experimental: (§1) Clonal phage were harvested as crude supernatants and screened via standard ELISAs. […] Prior to the addition of clonal phage. wells were incubated with blocking buffer and PSMA antigen or blocking buffer alone. Without washing or aspirating, clonal phage supernatants were then added to the wells and incubated for a short time. Wells were then washed followed by detection of bound phage using a horse radish conjugated anti-M13 antibody.

Anti-PSMA Fab [2] = molecular target: T1, Anti-PSMA Fab; assay: clonal phage ELISA on biotinylated PSMA Fab captured on neutravidin plate, anti-M13 HRP detection, blocking buffer alone
Experimental: as §1

PSMA Fab [3] = molecular target: T2, PSMA Fab (biotinylated (site not stated)); assay: clonal phage ELISA on captured PSMA Fab; competitor: PSMA antigen at saturating concentration
T2 construct: also called Anti-PSMA Fab; 006 PSMA Fab

PSMA Fab [4] = molecular target: T2, PSMA Fab; assay: clonal phage ELISA on biotinylated PSMA Fab captured on neutravidin plate, anti-M13 HRP detection; no PSMA antigen
Experimental: as §1

PSMA Fab [5] = molecular target: T3, PSMA Fab (biotinylated (site not stated)); assay: clonal phage ELISA on PSMA Fab pre-incubated with PSMA antigen as competitor
T3 construct: Biotinylated PSMA Fab captured on neutravidin coated plates in the phage ELISA; also called Anti-PSMA Fab; 006 PSMA Fab

PSMA Fab [6] = molecular target: T3, PSMA Fab; assay: clonal phage ELISA, biotinylated PSMA Fab on neutravidin plate, anti-M13 HRP detection;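 also: crude clonal phage supernatants added to wells pretreated with blocking buffer either with or without PSMA antigen, bound phage read after washing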
Experimental: as §1

[7] = molecular target: T4, PSMA Fab (SEQ ID NOs: 19, 20); assay: as above
T4 construct: also called Anti-PSMA Fab; 006 PSMA Fab
Experimental: as §1

[8] = molecular target: T4, PSMA Fab (SEQ ID NOs: 19, 20); assay: clonal phage ELISA on captured PSMA Fab, wells pre-incubated with PSMA antigen as competitor
Experimental: as §1

| Binder | Phage binding ELISA signal, Anti-PSMA Fab with PSMA antigen (Anti-PSMA Fab [1]) | Phage binding ELISA signal, Anti-PSMA Fab (Anti-PSMA Fab [2]) | phage binding ELISA signal (PSMA Fab [3]) | phage binding ELISA signal (PSMA Fab [4]) | further results |
| --- | --- | --- | --- | --- | --- |
| DILRCVPEWMCTGF (cysteine pairing not given here; also: fused to pIII of bacteriophage, pIII and linker not given here, Peptide-180 library clone, tested as clonal phage supernatant with the peptide fused to pIII of the bacteriophage) [Phage-3492] | 0.0911 | 1.71 |  |  |  |
| EAPACVPVWMCNGF (cysteine pairing not given here; also: fused to pIII of bacteriophage, pIII and linker not given here, Peptide-180 library clone, tested as clonal phage supernatant with the peptide fused to pIII of the bacteriophage) [Phage-3503] | 0.0778 | 1.7 |  |  |  |
| IEIRCKPEWMCTSF [Phage-3505] |  |  | 0.0708 | 1.7 |  |
| VGHMCKPVWMCAGL [Phage-3511] |  |  | 0.101 | 1.69 |  |
| PVAVCKPAWMCEGF (tested as crude clonal phage supernatant) [Phage-3487] |  |  |  |  | Phage binding ELISA signal, Anti-PSMA Fab with PSMA antigen (PSMA Fab [5]): 0.0982; Phage binding ELISA signal, Anti-PSMA Fab (PSMA Fab [6]): 1.72 |
| EYMRCEPSWMCYGF [Phage-3509] |  |  | 0.0584 | 1.69 |  |
| AEPVCVPDWMCFGF [Phage-3507] |  |  | 0.103 | 1.69 |  |
| ESVYCIPQWMCSGL (Tested as crude clonal phage supernatant) [Phage-3534] |  |  |  |  | Phage binding ELISA signal, Anti-PSMA Fab [7]: 1.66; Phage binding ELISA signal, Anti-PSMA Fab with PSMA antigen [8]: 0.0698 |
| VDHRCVPSWMCYGL [Phage-3508] |  |  | 0.0745 | 1.69 |  |
| LEMVCKPEWMCLGL (cysteine pairing not given here; also: fused to pIII of bacteriophage, pIII and linker not given here, Peptide-180 library clone, tested as clonal phage supernatant with the peptide fused to pIII of the bacteriophage) [Phage-3491] | 0.0996 | 1.71 |  |  |  |
| TEQICKPAWMCTGL [Phage-3512] |  |  | 0.0536 | 1.69 |  |
| VERVCVPQWMCSGF (Tested as crude clonal phage supernatant) [Phage-3533] |  |  |  |  | Phage binding ELISA signal, Anti-PSMA Fab [7]: 1.66; Phage binding ELISA signal, Anti-PSMA Fab with PSMA antigen [8]: 0.1 |
| THPLCVPTWMCSGF (cysteine pairing not given here; also: fused to pIII of bacteriophage, pIII and linker not given here, Peptide-180 library clone, tested as clonal phage supernatant with the peptide fused to pIII of the bacteriophage) [Phage-3499] | 0.0862 | 1.7 |  |  |  |
| LTQMCKPLWMCAGF [Phage-3506] |  |  | 0.0786 | 1.69 |  |
| YSQMCKPAWMCNGF (tested as crude clonal phage supernatant) [Phage-3486] |  |  |  |  | Phage binding ELISA signal, Anti-PSMA Fab with PSMA antigen (PSMA Fab [5]): 0.101; Phage binding ELISA signal, Anti-PSMA Fab (PSMA Fab [6]): 1.72 |
| ITQMCKPAWMCVGL (tested as crude clonal phage supernatant) [Phage-3488] |  |  |  |  | Phage binding ELISA signal, Anti-PSMA Fab with PSMA antigen (PSMA Fab [5]): 0.123; Phage binding ELISA signal, Anti-PSMA Fab (PSMA Fab [6]): 1.72 |
| MVPRCEPEWMCVGF [Phage-3517] |  |  | 0.0705 | 1.69 |  |
| YDHFCVPRWMCEGL (cysteine pairing not given here; also: fused to pIII of bacteriophage, pIII and linker not given here, Peptide-180 library clone, tested as clonal phage supernatant with the peptide fused to pIII of the bacteriophage) [Phage-3500] | 0.0592 | 1.7 |  |  |  |

| Binder | Phage binding ELISA signal, Anti-PSMA Fab with PSMA antigen (Anti-PSMA Fab [1]) | Phage binding ELISA signal, Anti-PSMA Fab (Anti-PSMA Fab [2]) | phage binding ELISA signal (PSMA Fab [3]) | phage binding ELISA signal (PSMA Fab [4]) | further results |
| --- | --- | --- | --- | --- | --- |
| VNMICKPAWMCKGF (cysteine pairing not given here; also: fused to pIII of bacteriophage, pIII and linker not given here, Peptide-180 library clone, tested as clonal phage supernatant with the peptide fused to pIII of the bacteriophage) [Phage-3490] | 0.0872 | 1.71 |  |  |  |
| TVHYCTPSWMCTGF (cysteine pairing not given here; also: fused to pIII of bacteriophage, pIII and linker not given here, Peptide-180 library clone, tested as clonal phage supernatant with the peptide fused to pIII of the bacteriophage) [Phage-3498] | 0.0866 | 1.7 |  |  |  |
| PLRYCEPAWMCFGF (cysteine pairing not given here; also: fused to pIII of bacteriophage, pIII and linker not given here, Peptide-180 library clone, tested as clonal phage supernatant with the peptide fused to pIII of the bacteriophage) [Phage-3501] | 0.0601 | 1.7 |  |  |  |
| YPTWCVPTWMCTGM (cysteine pairing not given here; also: fused to pIII of bacteriophage, pIII and linker not given here, Peptide-180 library clone, tested as clonal phage supernatant with the peptide fused to pIII of the bacteriophage) [Phage-3493] | 0.0716 | 1.71 |  |  |  |
| WLYSCIPQWMCTGF (cysteine pairing not given here; also: fused to pIII of bacteriophage, pIII and linker not given here, Peptide-180 library clone, tested as clonal phage supernatant with the peptide fused to pIII of the bacteriophage) [Phage-3502] | 0.127 | 1.7 |  |  |  |
| LEMACRPMWMCQGL (Tested as crude clonal phage supernatant) [Phage-3536] |  |  |  |  | Phage binding ELISA signal, Anti-PSMA Fab [7]: 1.66; Phage binding ELISA signal, Anti-PSMA Fab with PSMA antigen [8]: 0.0725 |
| PELACIPEWMCIGF [Phage-3515] |  |  | 0.0803 | 1.69 |  |
| VDRICKPDWMCAGF (cysteine pairing not given here; also: fused to pIII of bacteriophage, pIII and linker not given here, Peptide-180 library clone, tested as clonal phage supernatant with the peptide fused to pIII of the bacteriophage) [Phage-3497] | 0.091 | 1.7 |  |  |  |
| QDMVCRPAWMCTGF (cysteine pairing not given here; also: fused to pIII of bacteriophage, pIII and linker not given here, Peptide-180 library clone, tested as clonal phage supernatant with the peptide fused to pIII of the bacteriophage) [Phage-3496] | 0.0848 | 1.7 |  |  |  |
| LDRMCVPLWMCEGF (tested as crude clonal phage supernatant) [Phage-3489] |  |  |  |  | Phage binding ELISA signal, Anti-PSMA Fab with PSMA antigen (PSMA Fab [5]): 0.0991; Phage binding ELISA signal, Anti-PSMA Fab (PSMA Fab [6]): 1.71 |
| SVTTCIPPWMCTGF [Phage-3513] |  |  | 0.0979 | 1.69 |  |
| VVKHCVPTWMCAGF [Phage-3514] |  |  | 0.0813 | 1.69 |  |
| DYMMCSPDWMCKGF (cysteine pairing not given here; also: fused to pIII of bacteriophage, pIII and linker not given here, Peptide-180 library clone, tested as clonal phage supernatant with the peptide fused to pIII of the bacteriophage) [Phage-3494] | 0.0722 | 1.7 |  |  |  |
| SMAWCVPNWMCTGF (cysteine pairing not given here; also: fused to pIII of bacteriophage, pIII and linker not given here, Peptide-180 library clone, tested as clonal phage supernatant with the peptide fused to pIII of the bacteriophage) [Phage-3495] | 0.0897 | 1.7 |  |  |  |
| NIIHCVPPWMCDGF [Phage-3504] |  |  | 0.0795 | 1.7 |  |
| ADIYCKPVWMCTGF [Phage-3510] |  |  | 0.0909 | 1.69 |  |
| SVAYCVPTWMCDGL [Phage-3516] |  |  | 0.0618 | 1.69 |  |
| LNAMCVPAWMCTGF (Tested as crude clonal phage supernatant) [Phage-3535] |  |  |  |  | Phage binding ELISA signal, Anti-PSMA Fab [7]: 1.66; Phage binding ELISA signal, Anti-PSMA Fab with PSMA antigen [8]: 0.0634 |
